Drawing on PMC4980077 (The FEBS journal, 2016), this text covers Kd for 1 molecule.

Square brackets hold non-standard residues; d marks the D form. Ends that are not written are not given here. * marks the point of attachment. 5‑TAMRA = CN(C)c1ccc2c(-c3ccc(C(=O)*)cc3C(=O)[O-])c3ccc(N(C)C)cc3[o+]c2c1; pS = N[C@@H](COP(=O)(O)O)C(=O)O Some results are limits rather than exact numbers.

Assay [1] has as its target full-length PKA-RIα regulatory subunit dimer (bovine, UniProt P00514 1-380). Kind of assay: fluorescence polarisation. A general note: In fluorescence polarisation assays a small probe gives low polarisation when free and higher when bound to something large.
Assay [2] deals with full-length PKA-RIβ regulatory subunit dimer (UniProt P31321 1-381). Briefly: fluorescence polarisation.
Chain of full-length PKA-RIβ regulatory subunit dimer (P31321 whole entry): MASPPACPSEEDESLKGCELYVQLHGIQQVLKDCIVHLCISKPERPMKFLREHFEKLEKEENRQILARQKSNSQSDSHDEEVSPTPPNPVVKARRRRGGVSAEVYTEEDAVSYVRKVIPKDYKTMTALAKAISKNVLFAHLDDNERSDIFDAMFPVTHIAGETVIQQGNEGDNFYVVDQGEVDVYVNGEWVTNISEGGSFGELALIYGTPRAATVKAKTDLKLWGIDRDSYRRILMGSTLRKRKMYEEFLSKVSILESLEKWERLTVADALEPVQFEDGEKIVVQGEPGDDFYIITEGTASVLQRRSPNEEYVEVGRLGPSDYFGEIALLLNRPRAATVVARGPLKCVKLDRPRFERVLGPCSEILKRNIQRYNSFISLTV

Chain of full-length PKA-RIα regulatory subunit dimer (P00514 whole entry): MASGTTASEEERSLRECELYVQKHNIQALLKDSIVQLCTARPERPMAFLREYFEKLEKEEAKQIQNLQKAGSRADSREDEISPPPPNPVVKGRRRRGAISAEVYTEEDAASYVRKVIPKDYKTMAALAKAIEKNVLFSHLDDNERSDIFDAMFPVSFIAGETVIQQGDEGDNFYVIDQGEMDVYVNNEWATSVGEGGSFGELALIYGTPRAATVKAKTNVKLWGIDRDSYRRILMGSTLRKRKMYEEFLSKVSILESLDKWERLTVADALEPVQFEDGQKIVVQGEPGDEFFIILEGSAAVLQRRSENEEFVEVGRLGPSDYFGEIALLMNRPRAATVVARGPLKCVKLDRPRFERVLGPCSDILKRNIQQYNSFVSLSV

B1: phosphorylated smAKAP-AKB domain peptide (pSer66), tagged with 5-TAMRA (peptide)
peptide: {5‑TAMRA}-IVILEYAHRL[pS]QDILCDALQQWAC
modifications: cysteine pairing not given here
As for B1, the equilibrium dissociation constant (Kd) in assay [1] and in assay [2] was > 500 nM each time.
